The record followed here is US20210155689A1 (SHANGHAI PHARMAEXPLORER, published 2021).

Assay [1] deals with monkey LAG-3 on cells (HEK293-cLAG-3 stable cell line) (monkey). Put plainly: FACS, HEK293-cLAG-3, antibody 8.000 nM.
The target in assay [2] is human LAG-3 on cells (HEK293-hLAG-3 stable cell line) (human) (UniProt P18627). Put plainly: FACS, HEK293-hLAG-3, antibody 0 nM.
The target is the same in assay [3]. Put plainly: FACS, HEK293-hLAG-3, antibody 40 nM.
For assay [4], the target named is LAG-3-hFc protein (human LAG-3 extracellular region with hFc tag) (human) (UniProt P18627). Put plainly: ELISA, inhibition of LSECtin-His binding to coated LAG-3-hFc, antibody 0.000 nM, replicate 1.
Assay [5] shares this target. Put plainly: FACS, inhibition of LAG-3-hFc binding to MHC II on Raji cells, antibody 0.274 nM.
Assay [6] has the same target. Put plainly: FACS, inhibition of LAG-3-hFc binding to MHC II on Raji cells, antibody 2.469 nM.
Assay [7] deals with monkey LAG-3 on cells (HEK293-cLAG-3 stable cell line) (monkey). Put plainly: FACS, HEK293-cLAG-3, antibody 0.000 nM.
For assay [8], the target named is human LAG-3 on cells (HEK293-hLAG-3 stable cell line) (human) (UniProt P18627). Put plainly: FACS, HEK293-hLAG-3, antibody 1.6 nM.
Assay [9] concerns the target LAG-3-hFc protein (human LAG-3 extracellular region with hFc tag) (human) (UniProt P18627). Put plainly: ELISA, inhibition of LSECtin-His binding to coated LAG-3-hFc, antibody 40.000 nM, replicate 1.
Assay [10] has the same target. Put plainly: ELISA, inhibition of LSECtin-His binding to coated LAG-3-hFc, antibody 0.064 nM, replicate 1.
The target is the same in assay [11]. Put plainly: FACS, inhibition of LAG-3-hFc binding to MHC II on Raji cells, antibody 22.222 nM.
The target in assay [12] is human LAG-3 on cells (HEK293-hLAG-3 stable cell line) (human) (UniProt P18627). Put plainly: FACS, HEK293-hLAG-3, antibody 0.013 nM.
The target in assay [13] is LAG-3-hFc protein (human LAG-3 extracellular region with hFc tag) (human) (UniProt P18627). Put plainly: ELISA, inhibition of LSECtin-His binding to coated LAG-3-hFc, antibody 1.600 nM, replicate 2.
Assay [14] shares this target. Put plainly: FACS, inhibition of LAG-3-hFc binding to MHC II on Raji cells, antibody 66.667 nM.
For assay [15] the target is unchanged. Put plainly: ELISA, inhibition of LSECtin-His binding to coated LAG-3-hFc, antibody 40.000 nM, replicate 2.
The target in assay [16] is monkey LAG-3 on cells (HEK293-cLAG-3 stable cell line) (monkey). Put plainly: FACS, HEK293-cLAG-3, antibody 40.000 nM.
Assay [17] concerns the target LAG-3-hFc protein (human LAG-3 extracellular region with hFc tag) (human) (UniProt P18627). Put plainly: ELISA, inhibition of LSECtin-His binding to coated LAG-3-hFc, antibody 0.013 nM, replicate 2.
The target is the same in assay [18]. Put plainly: FACS, inhibition of LAG-3-hFc binding to MHC II on Raji cells, antibody 0.000 nM.
Assay [19] has as its target monkey LAG-3 on cells (HEK293-cLAG-3 stable cell line) (monkey). Put plainly: FACS, HEK293-cLAG-3, antibody 0.320 nM.
The target of assay [20] is T1, human LAG-3 on cells (HEK293-hLAG-3 stable cell line) (human, UniProt P18627 23-525).
T1 sequence: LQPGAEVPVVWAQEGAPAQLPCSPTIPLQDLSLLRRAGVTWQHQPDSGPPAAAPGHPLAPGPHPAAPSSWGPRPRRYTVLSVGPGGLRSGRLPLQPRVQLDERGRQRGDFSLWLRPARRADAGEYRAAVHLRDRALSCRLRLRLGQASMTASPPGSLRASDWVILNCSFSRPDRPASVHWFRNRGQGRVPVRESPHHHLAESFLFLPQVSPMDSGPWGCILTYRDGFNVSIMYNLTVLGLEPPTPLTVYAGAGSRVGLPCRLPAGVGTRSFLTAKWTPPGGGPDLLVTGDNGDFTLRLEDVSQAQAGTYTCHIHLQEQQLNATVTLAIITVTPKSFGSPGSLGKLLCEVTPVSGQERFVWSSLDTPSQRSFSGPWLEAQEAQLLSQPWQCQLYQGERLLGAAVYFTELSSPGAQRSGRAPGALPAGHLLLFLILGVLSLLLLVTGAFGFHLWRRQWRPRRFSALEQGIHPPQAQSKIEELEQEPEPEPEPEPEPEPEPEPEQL
Put plainly: FACS, HEK293-hLAG-3, antibody 0.32 nM.

The target of assay [21] is T1, human LAG-3 on cells (HEK293-hLAG-3 …). Put plainly: FACS, HEK293-hLAG-3, antibody 8 nM.
Assay [22] has the same target. Put plainly: FACS, HEK293-hLAG-3, antibody 0.013 nM. The text has this:
A. The binding of antibodies to LAG-3 expressing cells was detected by Flow cytometry (FACS), wherein the method was according to that of Example 5.

For assay [23] the target is unchanged. Put plainly: FACS, HEK293-hLAG-3, antibody 0 nM.

Chain of monkey LAG-3 on cells (HEK293-cLAG-3 stable cell line) (monkey) (P18627 other isoform, or with tags, fused parts or gaps limits assumed): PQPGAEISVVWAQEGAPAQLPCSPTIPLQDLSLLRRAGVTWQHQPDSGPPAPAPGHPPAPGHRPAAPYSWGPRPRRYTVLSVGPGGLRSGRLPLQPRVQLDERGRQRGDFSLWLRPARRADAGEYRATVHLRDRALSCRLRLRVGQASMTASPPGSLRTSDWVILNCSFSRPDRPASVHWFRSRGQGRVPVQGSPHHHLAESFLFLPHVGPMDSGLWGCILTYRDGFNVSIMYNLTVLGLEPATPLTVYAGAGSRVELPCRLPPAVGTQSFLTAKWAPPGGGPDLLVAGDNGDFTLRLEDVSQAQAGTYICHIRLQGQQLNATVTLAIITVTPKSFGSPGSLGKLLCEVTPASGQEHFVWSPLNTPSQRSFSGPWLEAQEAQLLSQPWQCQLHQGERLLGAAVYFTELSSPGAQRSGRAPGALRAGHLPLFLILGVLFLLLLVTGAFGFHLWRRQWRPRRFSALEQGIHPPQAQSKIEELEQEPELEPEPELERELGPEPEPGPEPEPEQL

In the case of hIgG control (antibody), the Mean fluorescence intensity in assay [1] was 3.16; in assay [2], 4; in [3], 4; in assay [7], 2.86; in assay [8] it was 4; in assay [12], 4. Besides, the Mean fluorescence intensity in [16] stood at 2.88; in assay [19] it was 3.13. Moreover, the Inhibition rate (%) is 3.1% in assay [4]; 8.1% in assay [5]; 2.1% in [6]; 0.7% in assay [9]; -26.4% in assay [10]; 19.7% in [11]. The Inhibition rate (%) is -7.4% in assay [13]; 12.1% in [14]; -3.5% in assay [15]; -15.7% in assay [17]; 17.7% in assay [18].

B1: 556F6B8 mouse-human chimeric antibody (antibody, V domains shown)
VH: RVQLKQSGPGLVQPSQSLSITCTVSGFSLIKYGVHWVRQSPGEGLEWLGVIWRGGITDYNAAFMSRLSITKDNSKSQVFFKMNSLQADDTAIYYCAKWDGPLAMDYWGQGTSVTVSS
VL: DIVMTQSHKFLSTSVGDRVSITCKASQDVGTTVAWYQQKPGQSPKLLIYWASTRHTGVPDRFTGSGSGTDFTLTISNVQSEDLADYFCQQYSSYPYTFGGGTKLEIK
notes: also called mAb123-556F6B8; 556F8B8
With B1, the Mean fluorescence intensity in assay [20] was found to be 29; in assay [21], 90.

B2: 405B8H3 mouse-human chimeric antibody (antibody, V domains shown)
VH: QVQLQQSGAELVRPGASVTLSCKASGYTFTDYEMHWVKQTPVHGLEWIGATDPETGNSAYNQKFKGKAIMTADKSSSTAYMELRSLTSEDSAVYYCISTGWNDWGQGTSLTVSS
VL: DIKMTQSPSSMYASLGERVTITCKASQDINSYLSWFQQKPGKSPKTLIYRADRLLDGVPSRFSGSGSGQDYSLTISSLEYGDMGIYYCLQYDEFPYTFGGGTKLEIK
notes: also called mAb103-405B8H3
Consider B2, for which the results for the Mean fluorescence intensity in assay [22] and in [23] were 9 and 4, respectively.
